In patent publication US20020146750A1 (published 2002):

Target: T1, MUC1 (mucin-1) on MUC1-expressing cells (human, UniProt P15941 24-1255, underglycosylated / partially glycosylated tumor-associated glycoforms)
T1 construct: whole, on cells; also called cellular MUC1; tumor-associated MUC1
Assay: flow cytometry, purified Fab dilutions on cellular MUC1 (ETA cells); data not shown
Experimental: Specific binding of the Fabs was measured by FACScalibur analysis (Becton Dickinson, Oxnard, Calif.) as described by Henderikx et al. (Cancer Res., 58: 4324-4332 (1998)). For affinity studies on cells with recombinant Fabs, the following flow cytometry experiment was carried out. Fab fragments were purified from the periplasmic fraction by IMAC and gel filtration as described in (Roovers et al., Br. J. Cancer, 78: 1407-1416 (1998)). Protein concentrations were measured with the bicinchoninic acid method (Sigma, St. Louis, Mo., USA). Two-fold serial dilutions of these Fabs were made and incubated, for each dilution point, with 2×10⁵/100 μl ETA cells (transfected 3T3 cells (Acres et al., J. Immunol., 14: 136-1443 (1993)). After trypsinisation, cells were washed one time in RPMI 10% FCS, 0.1% NaN₃ (incubation buffer). Then, cells were incubated with appropriate dilution for 1 hour at room temperature (RT), on a rotator. As negative controls, 2×10⁵ 3T3 mouse fibroblast cells were also incubated with the highest concentrations of antibodies. As a secondary negative control, ETA cells without primary antibody were used. Cells were spun down by centrifugation for 3 minutes at 611×g. Between incubations, cells were washed with incubation buffer. In a second incubation, anti-Myc antibody (6 μg/ml 9E10), directed against the Myc-tagged Fabs, was added for 30 minutes in incubation buffer at RT. After washing once, rabbit anti-mouse-FITC was used at RT for 30 minutes (Dako). Detection of bound antibodies was performed by means of flow cytometry on a FACSCalibur (Becton Dickinson, Oxnard), and results analyzed with the CELLQuest program (Becton Dickinson). Mean intensity was plotted against the concentration of the antibodies.
The relative ranking of the three clones from highest to lowest affinity (i.e., 7D1>7F3>7F9) appear to have stayed the same, but the positioning of both the wild type clone PH1 and best BIAcore mutant 5C8 appearef to be different from what was expected on the basis of the BIAcore affinity.

T1 sequence (P15941 24-1255): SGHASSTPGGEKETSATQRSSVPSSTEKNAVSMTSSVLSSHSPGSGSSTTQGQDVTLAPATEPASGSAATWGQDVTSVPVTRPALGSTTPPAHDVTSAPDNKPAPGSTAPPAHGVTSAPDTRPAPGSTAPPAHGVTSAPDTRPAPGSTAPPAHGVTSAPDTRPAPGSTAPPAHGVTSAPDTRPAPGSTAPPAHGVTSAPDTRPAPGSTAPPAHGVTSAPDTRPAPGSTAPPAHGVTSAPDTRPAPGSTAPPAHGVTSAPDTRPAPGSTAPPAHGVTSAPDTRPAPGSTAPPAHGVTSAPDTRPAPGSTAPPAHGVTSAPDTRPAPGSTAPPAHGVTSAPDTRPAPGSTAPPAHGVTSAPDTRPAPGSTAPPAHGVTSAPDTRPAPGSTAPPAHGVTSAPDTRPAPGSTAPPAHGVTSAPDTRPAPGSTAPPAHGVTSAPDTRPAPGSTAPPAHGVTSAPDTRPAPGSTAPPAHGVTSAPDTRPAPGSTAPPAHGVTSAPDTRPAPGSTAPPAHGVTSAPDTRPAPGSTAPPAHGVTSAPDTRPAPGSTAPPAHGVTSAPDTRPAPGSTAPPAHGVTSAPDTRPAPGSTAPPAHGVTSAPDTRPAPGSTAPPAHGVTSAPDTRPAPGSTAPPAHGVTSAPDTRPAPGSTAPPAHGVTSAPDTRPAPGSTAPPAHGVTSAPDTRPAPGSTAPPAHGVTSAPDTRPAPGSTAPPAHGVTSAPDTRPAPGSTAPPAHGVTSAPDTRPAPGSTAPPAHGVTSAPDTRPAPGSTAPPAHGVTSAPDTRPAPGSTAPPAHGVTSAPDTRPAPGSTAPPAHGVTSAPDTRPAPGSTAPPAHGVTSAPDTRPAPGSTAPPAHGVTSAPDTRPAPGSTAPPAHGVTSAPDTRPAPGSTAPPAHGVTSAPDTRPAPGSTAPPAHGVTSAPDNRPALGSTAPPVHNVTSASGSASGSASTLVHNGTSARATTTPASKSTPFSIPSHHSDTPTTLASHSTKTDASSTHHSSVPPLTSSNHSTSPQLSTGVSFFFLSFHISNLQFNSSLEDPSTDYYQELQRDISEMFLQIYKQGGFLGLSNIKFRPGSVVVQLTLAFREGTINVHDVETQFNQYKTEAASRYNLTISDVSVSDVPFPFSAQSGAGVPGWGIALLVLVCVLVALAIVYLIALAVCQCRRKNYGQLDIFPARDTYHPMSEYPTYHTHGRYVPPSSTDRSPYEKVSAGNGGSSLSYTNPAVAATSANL

Row | Binder | binding result
1 | 7D1 (Fab, V domains shown, PH1 Fab variant; also called clone 7D1) VH: QVQLVQSGGGLVQPGGSLRLSCAASGFTFRSNAMGWVRQAPGKGLEWVSGISGSGGSTYYADSVKGRFTISRDNSKNTLYLQMNSLRAEDTAVYYCAKHTGGGVWDPIKHWGQGTLVTVSS VL: EIVLTQSPLSLPVTPGEPASISCRSSQSLLHSNGYTYLDWYLQKPGQSPQLLIYSGSHRASGVPDRFSGSVSGTDFTLRISRVEAEDVGVYYCMQGLQSPFTFGPGTKVDIKR | binds
2 | 7F9 (Fab, V domains shown, PH1 Fab variant; also called clone 7F9) VH: QVQLVQSGGGLVQPGGSLRLSCAASGFTFRSNAMGWVRQAPGKGLEWVSGISGSGGSTYYADSVKGRFTISRDNSKNTLYLQMNSLRAEDTAVYYCAKHTGGGVWDPIGYWGQGTLVTVSS VL: EIVLTQSPLSLPVTPGEPASISCRSSQSLLHSNGYTYLDWYLQKPGQSPQLLIYSGSHRASGVPDRFSGSVSGTDFTLRISRVEAEDVGVYYCMQGLQSPFTFGPGTKVDIKR | binds
3 | 7F3 (Fab, V domains shown, PH1 Fab variant; also called clone 7F3) VH: QVQLVQSGGGLVQPGGSLRLSCAASGFTFRSNAMGWVRQAPGKGLEWVSGISGSGGSTYYADSVKGRFTISRDNSKNTLYLQMNSLRAEDTAVYYCAIHTGGGVWDPIKYWGQGTLVTVSS VL: EIVLTQSPLSLPVTPGEPASISCRSSQSLLHSNGYTYLDWYLQKPGQSPQLLIYSGSHRASGVPDRFSGSVSGTDFTLRISRVEAEDVGVYYCMQGLQSPFTFGPGTKVDIKR | binds
